Source: the Immune Epitope Database (IEDB)
pIC50, pKd: −log10 of the molar value. Blank lines part the entries; values can stand above or below the sequence they belong to.

Key:
HLA-A*30:01 = assay: IEDB peptide-MHC binding, purified MHC/competitive/radioactivity; filed as Kd, often an IC50 or EC50 that approximates it; ≥ and ≤ were set here for values at or beyond the usual limits of such assays
HLA-A*32:01 = assay: as above
HLA-A*02:01 [1] = assay: IEDB peptide-MHC binding, purified MHC/competitive/fluorescence; ≥ and ≤ were set here for values at or beyond the usual limits of such assays
HLA-A*24:02 = assay: IEDB peptide-MHC binding, purified MHC/competitive/radioactivity; filed as Kd, often an IC50 or EC50 that approximates it; ≥ and ≤ were set here for values at or beyond the usual limits of such assays
HLA-A*11:01 = assay: IEDB peptide-MHC binding, purified MHC/direct/fluorescence; filed as Kd, often an IC50 or EC50 that approximates it; ≥ and ≤ were set here for values at or beyond the usual limits of such assays
HLA-B*58:01 = assay: as above
HLA-B*15:01 = assay: as above
HLA-A*01:01 [2] = assay: as above
HLA-A*03:01 = assay: as above
HLA-A*31:01 = assay: as above
HLA-B*40:01 = assay: as above; settings: source organism: Mammarenavirus lassaense
HLA-B*18:01 = assay: as above
HLA-A*69:01 = assay: as above
HLA-A*02:03 = assay: IEDB peptide-MHC binding, purified MHC/competitive/radioactivity; filed as Kd, often an IC50 or EC50 that approximates it; ≥ and ≤ were set here for values at or beyond the usual limits of such assays; settings: source organism: Dengue virus 1 Singapore/S275/1990
HLA-A*30:02 = assay: as above
HLA-B*07:02 = assay: IEDB peptide-MHC binding, purified MHC/direct/fluorescence; filed as Kd, often an IC50 or EC50 that approximates it; ≥ and ≤ were set here for values at or beyond the usual limits of such assays
HLA-A*02:01 [3] = assay: as above
HLA-B*27:05 = assay: as above
HLA-A*26:01 = assay: IEDB peptide-MHC binding, purified MHC/competitive/radioactivity; filed as Kd, often an IC50 or EC50 that approximates it; ≥ and ≤ were set here for values at or beyond the usual limits of such assays
HLA-A*01:01 [4] = assay: as above
HLA-A*02:01 [5] = assay: IEDB peptide-MHC binding, purified MHC/competitive/fluorescence; filed as Kd, often an IC50 or EC50 that approximates it; ≥ and ≤ were set here for values at or beyond the usual limits of such assays; settings: source organism: human gammaherpesvirus 4
[6] = source organism: Vaccinia virus WR
[7] = source organism: Dengue virus 3 Martinique/1243/1999
[8] = source organism: Dengue virus 4 Philippines/H241/1956
[9] = source organism: Vibrio vulnificus
[10] = source organism: Dengue virus 2 Jamaica/1409/1983
[11] = source organism: Zaire ebolavirus
[12] = source organism: Vaccinia virus
[13] = source organism: Dengue virus 1 Brazil/97-11/1997
[14] = source organism: Human immunodeficiency virus type 1 (isolate YU2)
[15] = source organism: Escherichia coli
[16] = source organism: Orthohantavirus hantanense
[17] = source organism: Lassa virus Josiah

Sequence: LQRGRLPLV
pKd (HLA-A*30:01; [6]): 7.03

Sequence: LTFNFTPKI
pKd (HLA-A*32:01; [6]): 6.96

Sequence: LVSKFMSNG
pIC50 (HLA-A*02:01 [1]; [6]): ≤ 3.70

Sequence: LWRTLGRNK
pKd (HLA-A*30:01; [7]): 6.32

Sequence: LYAVATTIL
pKd (HLA-A*24:02; [8]): 7.10

pKd (HLA-A*11:01; source organism: Homo sapiens): 5.08
pKd (HLA-B*58:01; source organism: Homo sapiens): 6.03
pKd (HLA-B*15:01; source organism: Homo sapiens): 5.84
pKd (HLA-A*01:01 [2]; source organism: Homo sapiens): 5.48
pKd (HLA-A*03:01; source organism: Homo sapiens): 4.87
Sequence: MCFHQHLMY

Sequence: MLVCGDDLV
pIC50 (HLA-A*02:01 [1]; source organism: Hepatitis C virus genotype 1): 5.30

Sequence: MQYMTIQQK
pKd (HLA-A*31:01; [9]): 6.46
pKd (HLA-A*03:01; [9]): 6.69

Sequence: MTMNIVNFF
pKd (HLA-A*32:01; [6]): 8.71

Sequence: MYKLNKPTK
pKd (HLA-A*01:01 [2]; source organism: Camelpox virus M-96): ≤ 4.70

Sequence: NAICSAVPSH
pKd (HLA-A*30:01; [10]): 5.19

Sequence: NETGLELTL
pKd (HLA-B*40:01): 7.72
pKd (HLA-B*18:01; source organism: Mammarenavirus lassaense): 7.78

Sequence: PLGVVTNST
pIC50 (HLA-A*02:01 [1]; source organism: Sudan ebolavirus): ≤ 3.94

Sequence: PLNEGIMAV
pKd (HLA-A*69:01; source organism: dengue virus type 1): ≤ 5.30
pKd (HLA-A*02:03): 6.93

Sequence: PQLSAIALG
pIC50 (HLA-A*02:01 [1]; [11]): ≤ 3.37

Sequence: QEKWMTGRM
pKd (HLA-B*18:01; source organism: Yellow fever virus): 5.52

Sequence: QLLLQKYPP
pIC50 (HLA-A*02:01 [1]; [12]): ≤ 4.03

Sequence: QVCIDILRS
pIC50 (HLA-A*02:01 [1]; [12]): ≤ 4.01

Sequence: QVDQGIEYY
pKd (HLA-A*01:01 [2]; source organism: Mycobacterium tuberculosis): 6.92

Sequence: RAVLDDGIY
pKd (HLA-A*30:02; [13]): 7.35

pKd (HLA-B*07:02; source organism: Mus musculus): 7.44
Sequence: RAWDPQPAM

Sequence: RFKKESSLA
pKd (HLA-A*30:01; [6]): 9.52

Sequence: RFRKKKKVY
pKd (HLA-A*01:01 [2]; source organism: Listeria monocytogenes): ≤ 4.70

Sequence: RFSTSLLFL
pKd (HLA-A*24:02; [8]): 7.11

Sequence: RGTTFAEGV
pIC50 (HLA-A*02:01 [1]; [11]): 5.03

Sequence: RIKQIINMW
pKd (HLA-B*58:01; [14]): 6.05
pKd (HLA-A*01:01 [2]; [14]): 5.26
pKd (HLA-A*03:01; [14]): 5.44

pKd (HLA-A*69:01; [15]): ≤ 4.70
pKd (HLA-A*02:01 [3]; [15]): 6.38
Sequence: RILAYGPCL

Sequence: RIYSDPLAL
pKd (HLA-A*32:01; [10]): 4.85

Sequence: RLKPVGSAY
pKd (HLA-A*11:01; [16]): 5.44
pKd (HLA-A*31:01; [16]): 6.40
pKd (HLA-B*15:01; [16]): 6.45
pKd (HLA-B*07:02; [16]): 6.17
pKd (HLA-B*27:05; [16]): 5.07
pKd (HLA-A*03:01; [16]): 6.67

Sequence: RRLVKVLNN
pKd (HLA-B*27:05; source organism: Mycobacterium avium 104): 5.36

Sequence: RSCTLPPLRY
pKd (HLA-A*30:02; [10]): 7.81

Sequence: RTIFNFHLI
pKd (HLA-A*32:01; [6]): 8.68

Sequence: RTNNAELDF
pKd (HLA-A*32:01; [6]): 6.88

Sequence: RTYGLRNSL
pKd (HLA-A*32:01; [6]): 9.20

Sequence: RYRFAFLYL
pKd (HLA-A*30:01; [6]): 9.77

Sequence: RYRQRLISL
pKd (HLA-A*30:01; [6]): 8.29

Sequence: SGVLWDVPSP
pKd (HLA-A*30:01; [7]): 5.44

Sequence: SIPATLFVWY
pKd (HLA-A*26:01; [13]): 6.89
pKd (HLA-A*01:01 [4]; [13]): ≤ 4.69

Sequence: SSSTEVETY
pKd (HLA-B*58:01; source organism: Influenza A virus (A/New York/124/2001(H3N2))): 6.31

Sequence: SVIEKMEAL
pKd (HLA-A*26:01; source organism: Dengue virus 2 16681-PDK53): 7.29

Sequence: SVRLLNYFK
pKd (HLA-A*30:01; [6]): 9.62

Sequence: TFKNPHAKK
pKd (HLA-A*30:01; [10]): 5.84

Sequence: TLCDMIKGT
pIC50 (HLA-A*02:01 [1]; [12]): 4.64

Sequence: TLFIGSHVV
pKd (HLA-A*02:01 [5]): 8.85

Sequence: TSLTQKVVIF
pKd (HLA-A*01:01 [4]; [7]): 5.05

Sequence: TTKATTQIA
pKd (HLA-A*30:01; [6]): 8.19

Sequence: TTTLEETKF
pKd (HLA-A*11:01; source organism: SARS-CoV1): ≤ 3.96
pKd (HLA-B*58:01; source organism: SARS-CoV1): 4.93

Sequence: VFFTFVLLL
pKd (HLA-A*24:02; [7]): 6.59

Sequence: VHSWEDIPY
pKd (HLA-A*30:02; [8]): 5.47

Sequence: VIMEYHLLF
pKd (HLA-A*32:01; source organism: Vaccinia virus Copenhagen): ≤ 4.11

Sequence: VLTLATGPIL
pKd (HLA-A*30:01; source organism: Dengue virus 4 Dominica/814669/1981): 5.88

Sequence: VQLLGRRFV
pKd (HLA-A*69:01; [9]): ≤ 4.70
pKd (HLA-A*02:01 [3]; [9]): ≤ 4.70

Sequence: VSETQHGTIL
pKd (HLA-A*01:01 [4]; [7]): ≤ 4.15

Sequence: VSNRCPICK
pKd (HLA-A*11:01; [17]): 7.33
pKd (HLA-A*03:01; [17]): 6.05

Sequence: WAFWETKKN
pIC50 (HLA-A*02:01 [1]; [11]): ≤ 3.67

Sequence: YSDPLALRE
pKd (HLA-A*01:01 [4]; [13]): 6.58
